Assay: label from the status in PepcDB records
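Note: failed if final PepcDB status was selected cloned or expressed and not failed if soluble or beyond.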

Sequence | protein production
MQTPKSRPGSLELPQKKSPLPAPKVVRRLKPSGAESDPKTKTISKTQIPKVVADRRSARIPLNEKKRTGRIPELESTISQLQEELKKAKEELNRSEALKREAQEEAEDAKHQLMDINASEDSRIEELRKLSQERDKTWQSELEAMQRQHGMDSTALSSAINEVQKLKSKLFESESELEQSKYEVRSLEKLVRQLEEERVNSRDSSSSMEVEELKEAMNLSRQEITQLKSAVEAAETRYQEEYIQSTLQIRSAYEQTEAVKSRYSQREAELTEELNRTKDEIEGLRKELMEKVKEDESTGDLKKLESDLMEVRGSLMDKEMELQILRSAMEKKVETANTEAMEAELKRVKIQCEQWRKAAETAASILNNDEERTDSIETSKMLKKFGVLLKKNHK | failed
MQTSIDPVFAGWDGSVAQARQLQQQLAQRVALRDEVSAAPALLAGFDVGFEDDGQTTRAAAVLLDAQTLLPLETHVARVPTSMPYVPGLLSFRELPALLRALALLARTPDLVFIDGQGIAHPRRFGIAAHFGVVTGLPSIGVAKQRLAGTFIEPGGERGDHSPILLAGAQIGWALRSKPRCNPLIVSPGHRVSMQGALDWTLRTLRAYRLPEPTRLADRLASRRGEIELQTQPTLLLEHHHHHH | failed
MQTTAAAQERYTRTAIFLHWCMTAMIVGLIGLGFYMGQQPPSPEKYALYELHKSLGVVTVLLLFARFIWRAANPPPELPTAYSQLLRTASHLGHFALYVLMFAVPVSGWVMSAAYGRPASLFGVPIPPPVTKSEDLAELWGTIHFALGSALALVIAGHTLFALKHHFIDKDGLLWRMWVRCP | failed
MQVEQRTLNTAAHPFQITAYWLDQISDFETAVDYPIMIICPGGGFTYHSGREEAPIATRMMAAGMHTVVLNYQLIVGDQSVYPWALQQLGATIDWITTQASAHHVDCQRIILAGFSAGGHVVATYNGVATQPELRTRYHLDHYQGQHAAIILGYPVIDLTAGFPTTSAARNQITTDARLWAAQRLVTPASKPAFVWQTATDESVPPINSLKYVQAMLQHQVATAYHLFGSGIHGLALANHVTQKPGKDKYLNDQAAIWPQLALRWLQEQGLLAGNYLEHHHHHH | not failed
MQVNIILLAAGKGQRFQSSSPNKIGCATIKQLARINDKPLIVHSIDKLQPLLKNAYVHNFFVTLGANKNAIQTVLPQDISVIASQHWAEGMGHTLAESVHSIKATSSHVLVALADQALITTEHYQELLSASKEQPNKIIATLCEGQLMAPAIFPEKYFPLLVKIQGDKGAGKLLLQHAKKADAITCEDAKIDIDTFSDLERVRQHLEYALQDNQQSSL | failed
MQVRTLTPDDLPQACALCMDAFMQAVAPTLSAQGIETFTQVSAPQAFAERMQGDNLMLACFVEGAIAGLIELKEGRHIAMLFIAPGLQRQGIGKRLMNAALEHASAEVVTVKASLSSVPAYQRYGFTLAGDVGEFAGLVYQPMEKRLPTQPALEHHHHHH | not failed
MQWDPGGATESRSKLYIYLRFLRIEQVFFSLPMAYMGAFLAIREIPPIQVLILMFFSLFFLRTAGMTNDNLADREIDAMNPRTKSRPLVTGKITVREAKLLITISLIGFFITAYLINLYALIFAPIVALIVMSYPYMKRYTAFANYHLASIQGLAVFSGAVASLGLYAKSFTQLVTGIPWLFVISTVFWAVGFDLYNHIPDADFDKKMGLHSFAVLLGDRALMFAGLNQLISVLLALFGDIQFNLGIIAYIATILHGLIMGYAYYSATRGNFGRAFYYNIYSSIVLGIGIIIDIIV | failed
MQWRFCLTTVLGVVLSFSPSVKVQAQGLESLTYYTENYPPLNFAKEDGKPAGIAVDLLLEAAAAVNVTLNLDQIFVQPWPRSYRSALLKQDGVLFSTTRTTHRENLFNWVGPIADIKVVVLARKSSQIKVNDPIELGNYRIGVIRDDIGEQQLLQLGVPRESMVEGSTVSSLAEQLLKKRIDLLAYDERTALWWMSQDSYPVEEFETVYVLMQGSLYYAFNKNIDKSVLNDLQKGIELIKNSVNENGVTRYQAILDKY | failed
MQYIKIHALDNVAVALADLAEGTEVSVDNQTVTLRQDVARGHKFALTDIAKGANVIKYGLPIGYALADIAAGEHVHAHNTRTNL | not failed
MRAADAPDAPLPEDRRNAPVWFAHDLEAPRCTALFPRLADRRPALVVVGGFLGSGKTTFLNNCIEYHRARERFVAVIQNEVGATGVDARLMGDGAEVLALDEGCVCCSLAGSLAGGIRAITADFTPEVILLETTGLANPLNLLAELDTLRDMVRLDAVVTVVDAANIVPTLRDSDIARDQIRGADIIVCNKCDTVDETGRAALRATLTGLNGRAALHETSFGRIHPSLFMALEGERPPRGLMPAPHGTHATHADEGFAAVRLFFSGTIDEAALAPLLQQCPGAPFRIKGIVRVTDDEAPRLVQCVGARCEVERLDGGFEGTPFLVFIGRNPDETALLEHWAALGATAEPPAPQAEADTQPAQATKSASGGQSSDATRGCHDHHLEHHHHHH | failed
MRAERGPPKQTISLPVALRKDRDMSEIAPQNRRIRPAAIVVLFLTIALTGCLLALGTWQVQRLFWKLDLIERVDVRAHAEPVDAPAASDWPALGNPSDYEYRRVKLTGTLLNDREVQVYTVTDLGPGYWVMTPLRRDDGSSIIVNRGFVPSDRRDPSSRTGGEPTGNVEIVGLMRAPETGGLFLRTNDPANGRWYSRNIPQITQASGLSDVAPFYVDADATPNPGGLPVGGKTMLTFPNNHLSYAVTWYILAAMVVAAGWYVLRNLNAPKSKRDAD | failed
MRAFIAIDVSESVRDALVRAQDYIGSKEAKIKFVERENFHITLKFLGEITEEQAEEIKKILEKIAKKYKKHEVNVRGIGVFPNPNYVRVIWAGVENDEIIKKIAKEIDDELAKLGFKKEGNFVAHITLGRVKFVKDKLGLAMKLKELANEDFGSFIVEAIELKKSTLTPKGPIYETLARFELSE | not failed
MRAGVREVIDDSSERTLQQVIERAFLRTKGAIIRQKRVFGFVSAKGGDGGSCIAANFAFALSQEPDIHVLAVDISLPFGDLDMYLSGNTHSQDLADISNASDRLDKSLLDTMVQHISPSLDLIPSPATFEKIVNIEPERVSDLIHIAASFYDYIIVDFGASIDHVGVWVLEHLDELCIVTTPSLQSLRRAGQLLKLCKEFEKPISRIEIILNRADTNSRITSDEIEKVIGRPISKRIPQDEDAMQESLLSGQSVLKVAPKSQLSKTIVDWALHLNGVSRPNKRSIWERLKIK | not failed
MRAISQYIAIFVITLTLSGCFFQNSDDQRWELAPQGTTSFALSRDARFALFFVKNDSIPEKNESQVKSGLHFWDLVENKELTFFGDQDQDKSTVSYIRISDNSRFAITATQTNFAVWDLGMGISEGLWSISDGIIRDVAIASNGQQVLLGLSNGKAIYINLATGRRLEFLAHREKVNSVALSANGKFALSGGNDYFAYLWDTETGQILRTFEHEKRVSRTALQRDGKYAFTADGGNEGFIWDLKTGEKITELSTLARQQVYSTARFSDDGQLLVTGSPSGTVNVWNTTSGKKLEQWRSEPLKDARPPTAVVYDVAIDKQQRVVSATSAGIAQAWLIE | failed
MRAKKRKFLQKEELSKLLQSLDMSQIGFGWFVMLAAKTGMRYAEALAITPADFDWTAQTISINKTWDYKYNKGFAKTKTLSSVRTIKIDWQIVGQFKPLIKDFPEDEPIFVEKFGDGTYKRQFNSTINNFLAVKCNETGITQISFHALRHTHASVLLAEGVSIHTISARLGHADVGVTQETYAHVLDELQKKDDQKMLSVLMQIALEHHHHHH | not failed
MRALRGWPLAWFLLALAFAIRLLSLGSYPLMDTTEARYGEVARKMAELGDWITPWYDVGVPFWGKPPLAFWLSAGGQLLLGANEFASRLPHWLLGVLVLWLVWDWQAREDRRQARIACVLLGSSALFFVASGAVMTDMALALALVLAMRGFWLGLHGAEGIRRREGWLMFLGLGLGLLAKGPLTLILAGLPIGLWALLEWRWRALWRGLPWIRGSLLMLLVAAPWYLLAELKTPGFLEYFLLGEHWQRFVTAGWDGDRYGNAHAYPYGSVWLFLLAAAFPWSLWLPLLLWLGWRQRGEVVDGVASRRRYWLFWGLAPCLFFTFAGNVLWTYVLPGLPALALLAADLLRAPLARSAWLRRGGLACLALTPLLFALFLGSLLLGSRAEQKSTAALLASDAGWRERPLVFWPKRPYSAVFYSGGRAQRAEDSELAGWLRRDALLAIRSRSFGALPDEVRQRLRCRPPVGQYQLCQGVAPPG | failed
MRAMSKFSRIGLAGVVGAALHAILANHLAPAVQQRLPIGRVSLTFFLALLSALAAGAVLARLAPRARVAALAVAALAFLLLAAATTWLQQCTPAQLAAIDAATPLGCNLGLYNRARAHLPPDGRPAELAPGVWFDRHGLSYACLPPEAQATHLRVALADYALALVGMSLGALLGARQRRRRDQD | failed
MRASKASADESLNVFPVPADSPGSPIAGANGVPKEISLPGEARPFHLANSAFWPYVLLFVSSLTLSGCAGMVDMVRDVTRSLADIDVSGITDLFGSGEVQMSPEQIAQLEVIPSTRPGWEASVEESPAAVFLPVFGDGAVYAGGPDGRLVRFDPASGKASGVIDTKHPLAGGIGTGDGMLLVGTFKGEVLAFDEKSGKPKWTANLSTEVLSPPHAGMGVVVVRTGDGRIYGLDSESGKRKWVYQGATPSLTVRSFAGALIADDRVYAGFAGGRLVALNLSNGSLVWEAMVSRPRGATELERISDVTSLPVLDEQQVCAVAYQGRIACFDITAGNQIWTRDVSSNAGLAMDDNYVYVSENRGGIVAYDKRDGTSIWAQDLLNGLKLSAPLVHGARIVVGDSQGYVNFIRKDNGAIIARSGTDESAITARPISLPNGIAVQTRKGGVFAFGA | failed
MRAYQIMSRQVVSIRPEAPITDAIKVMLAHHISGLPVVDSADNLVGIICESDFLRRSEIGTEHERNRLLSLLLGAERVASEFVKERGRKVEQVMTRQPVTTNEQAPLDEVADVMERRHLNHIPVMRADRIVGIITRSDFLSAVAGPLTGASGYSGSDNQLRRAVLAALAKTPWQPIGLNVRVRDGAVSLRGVIRGESAHRAAIVACENVPGVLRVDDRLCVQPSRPDPEDDYGGGDFVSLQMEPSTLDDEPL | failed
MRDGVSPEQPKVSVIMPVRDGERWVAEAIRSVQSQTFRDFELLVIDDGSADATPAILAEAAAADPRIFVLTQHRDGLVAGLNRGLAAARAPLIARLDADDIALPDRLARQVDYMTTHPAVVLLGGWATIVDENGQPKGRDMRPNPNDLRATLMKKSPFIHPTVMFRAEAARRVGGYHAAFEAGEDYDFWLRLADIGEVAILPELLIRYREHSASVTRTRQLRQIYSARLAKLAAAARQAGQPDPSAPLTTPPDWHDASPGPFERDSSRLFRMLELADPAVAARIAPSAIDLNAITSQLGTLTAGERKFAQAALLNLLRANKLPSLAARWSAVFLLVRLGPLKAIKAARQLRNR | failed
MRDLVSCFSENSINVTHPLSISSSSSSCSKYSTNNVCISPSLIPSIQTSITSIYRITLSKHLIIKVTWCNPHNNNGLSISVASADQNPSTTLKLNTSSRFFRKKKGNKSVDSDLGKIEVFWDLSSAKYDSNLCGPEPINGFYVIVLVDGQMGLLLGDSSEETLRKKGFSGDIGFDFSLVSRQEHFTGNNTFYSTKVRFVETGDSHEIVIRCNKETEGLKQSNHYPVLSVCIDKKTVIKVKRLQWNFRGNQTIFLDGLLVDLMWDVHDWFFSNQGACGRAVFMFRTRNGLDSSRLWLEEKIVKKDQQDKLDFSLFIYACKT | failed
